Data on three molecules can be found in patent US20210395344A1 (TWIST BIOSCIENCE, published 2021).

Holding throughout (assay): phage ELISA
Assay [1] has as its target COVID S1 RBM Fc fusion (Antigen 2) (SARS-CoV-2, UniProt P0DTC2 437-508).
The target in assay [2] is COVID S1 RBD Fc fusion (Antigen 1) (SARS-CoV-2, UniProt P0DTC2 319-541).
The target of assay [3] is T1, COVID S1 RBM Fc fusion (Antigen 2) (SARS-CoV-2, UniProt P0DTC2 437-508).
T1 construct: domain: RBM

Assay [4] concerns the target T2, COVID S1 RBD Fc fusion (Antigen 1) (SARS-CoV-2, UniProt P0DTC2 319-541).
T2 construct: domain: RBD

The target in assay [5] is T3, SARS-CoV-2 S1 (subunit 1) protein (SARS-CoV-2, UniProt P0DTC2 16-685).
T3 construct: also called biotinylated SARS-CoV-2 S1

Assay [6] deals with S1-Fc (SARS-CoV-2, UniProt P0DTC2 16-685).

B1: SARS-CoV-2 variant 2-15 (antibody, V domains shown)
VH: EVQLLESGGGLVQPGGSLRLSCAASGFTFSDFAMAWVRQAPGKGLEWVSAISGSGDITYYADSVKGRFTISRDNSKNTLYLQMNSLRAEDTAVYYCAREADGLHSPWHFDLWGQGTLVTVSS
VL: DIQMTQSPSSLSASVGDRVTITCRASQSIDNYLNWYQQKPGKAPKLLIYGVSALQSGVPSRFSGSGSGTDFTLTISSLQPEDFATYYCQQSHSAPLTFGQGTKVEIK
Turning to B1, the figures for the “specificity ELISA, fold over background” value in assay [1] and in assay [2] were 0.9 fold over background and 28.1 fold over background, respectively. Besides, the “specificity ELISA, percent binding relative to Acro S1” value was 3% in assay [1] and 90.6% in assay [2].

B2: SARS-CoV-2 variant 1-37 (antibody, V domains shown)
VH: EVQLLESGGGLVQPGGSLRLSCAASGFTFTSYAMNWVRQAPGKGLEWVTAISGSGGSTFYADSVKGRFTISRDNSKNTLYLQMNSLRAEDTAVYYCTRPPYGDYGDYWGQGTLVTVSS
VL: QSALTQPASVSGSPGQSITISCTGTSSDIGSYNLVSWYQQHPGKAPKLMIYEGTKRPSGVSNRFSGSKSGNTASLTISGLQAEDEADYYCCSYAGSRTYVFGGGTKLTVL
As to B2, the “specificity ELISA, fold over background” value in assay [3] is 1.4 fold over background; in assay [4], 2 fold over background; in assay [6], 5.4 fold over background. In addition, the “specificity ELISA, percent binding relative to Acro S1” value in assay [3] was found to be 12.3%; in assay [4], 17.7%; in assay [6], 46.7%. In assay [5], the “screening ELISA (Avg), fold over background” value worked out at 27 fold over background.

B3: SARS-CoV-2 variant 1-26 (antibody, V domains shown)
VH: EVQLLESGGGLVQPGGSLRLSCAASGFTFSSYAISWVRQAPGKGLEWVSAISGSGYSTYYADSVKGRFTISRDNSKNTLYLQMNSLRAEDTAVYYCARGAPDSSGYYFQGEVYFDYWGQGTLVTVSS
VL: QSALTQPASVSGSPGQSITISCTGTSSDVGGYNLVSWYQQHPGKAPKLMIYEGTKRPSGVSNRFSGSKSGNTASLTISGLQAEDEADYYCCSFVRSSAHVVFGGGTKLTVL
As to B3, the figures for the “specificity ELISA, fold over background” value in assay [3], in assay [4] and in assay [6] were 1 fold over background, 1.1 fold over background and 1.3 fold over background, respectively. Also, the results for the “specificity ELISA, percent binding relative to Acro S1” value in assay [3], in assay [4] and in assay [6] were 74.7%, 76.8% and 98%, respectively. Also, the “screening ELISA (Avg), fold over background” value in assay [5] was 19.5 fold over background.
